According to the supplement of paper PMC9170038:

Test system: MS2 coat protein
Test: apparent KD of MS2 coat protein; designed switch direction (-1 OFF switch, 1 ON switch): -1; higher = weaker reporter binding
How it was run: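 Three titration conditions were used: no input, 200 uM small-molecule ligand, and an oligonucleotide input. In each, SNAP-549-labelled MS2 coat protein was raised from 0.7 or 1.5 nM, doubling, to 3 µM over designed RNA switches transcribed on Illumina chips by stalled E. coli RNA polymerase. Curve fits of normalised cluster fluorescence gave values whose per-design median over clusters is the apparent KD.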

[1] = input ligand: microRNA oligo, concentration not stated
[2] = Eterna round: R95, input ligand: FMN 200 uM
[3] = Eterna round: R95, input ligand: microRNA oligo, concentration not stated
[4] = Eterna round: R95, input ligand: none

Sequence	apparent KD of MS2 coat protein (input ligand: FMN 200 uM)	apparent KD of MS2 coat protein (input ligand: none)	apparent KD of MS2 coat protein [1]	apparent KD of MS2 coat protein [2]	apparent KD of MS2 coat protein [3]	apparent KD of MS2 coat protein [4]
CCUCUGUUAGGAUAUGGCAAAGAUGAGACACACCGACAUUGUUAGAAGGGACAUGAGGAUCACCCAUGUCAGCG [Eternabot (L1) Solution 57] (Eterna round: R97, puzzle: Exclusion 4)	22.8 nM	21.4 nM	–	–	–	–
CCUCUUGGGCAAGGAUAUCCUGCGCGGUUCCGGCUCGUGUCUGUCACAUGAGGAUCACCCAUGUGGGAGAAGGUGCCUGCGGUC [Design 79] (Eterna round: R96, puzzle: Exclusion NG 2)	16.3 nM	16.5 nM	11.8 nM	–	–	–
CCUGAGGUUUGGUAGAAAACAUGAGGAUCACCCAUGUAUGUGCAGGAUAUCGACCGGCUCGCUGCCGAGAAGGGCAUCUACAUA [Eternabot solution 31] (Eterna round: R96, puzzle: Exclusion NG 3)	45.4 nM	36.9 nM	24.8 nM	–	–	–
CCUGUGCUAUAGGAUAUGGCUUAGCAAUAUGCGCCAGAAGGAUAGACAUGAGGAUCACCCAUGUACGACGAAGC [Eternabot (L2) Solution 65] (Eterna round: R97, puzzle: Exclusion 6)	35.9 nM	24.3 nM	–	–	–	–
CCUUGACAUGAGGAUCACCCAUGUGAGGAUAUAGAAUACAUCAUACACUGACCUCCUUCUAGAAGGCACAUCUC [1986#2] (Eterna round: R97, puzzle: Exclusion 1)	14.1 nM	15.3 nM	–	–	–	–
CCUUUGUCAGGAUAUCAGAACACGCUCCUAGGGAGCGCAAAUGAGAAGGGACAUGAGGAUCACCCAUGUAAAGA [Arisesat] (puzzle: Exclusion 4)	–	–	–	318 nM	41.6 nM	54.8 nM
CGAAGUAGAAACCGAUCCUACAUGAGGAUCACCCAUGUAGCAAGACGUGCACGCGAAGCUCGUCAGACUACCAGAAU [salish99_TOv1_r3_015] (puzzle: Sensor v3, turn-off variant 1)	–	–	–	212 nM	257 nM	430 nM
CGACAGGGAGGAUAUACAUGAGGAUCACCCAUGUUCAAGCGUCCUUGAACUACCUCUGGUAGAAGGCCCUAAAG [jl-ex3-4.67 ViennaUCT mod] (Eterna round: R97, puzzle: Exclusion 3)	44.6 nM	123 nM	–	–	–	–
CGACUGUGAGGAUAUGGUGAGUAGUGCCUGAGCGCUGCUCACCAGAAGGCACAUGAGGAUCACCCAUGUAUGAC [Mat - Exclusion 4 - Mod of JL - D8] (puzzle: Exclusion 4)	–	–	–	–	72.8 nM	–
CGAGCUGCUGUGAGGAUAUACCUAUGGAUACGUGGGUAGAAGGCACAUGAGGAUCACCCAUGUCCUGCAGCUCG [salish99_bmx4_r4_102] (Eterna round: R97, puzzle: Brourd's mod of Exclusion 4)	313 nM	51.7 nM	–	–	–	–
CGAGUGUAAGGAUAUUCGGCACCAGAGAACGAUCUGGCGUAGAAGAAGGUACAUGAGGAUCACCCAUGUGGUUA [Atonte] (puzzle: Exclusion 4)	–	–	–	–	114 nM	–
CGAUAAUCCAAGGAUAUGCUAGACGAAAGUCUAGCAGAAGGUGGAACAUGAGGAUCACCCAUGUGUCCAAAUCG [Mat - Exclusion 6 - Eli Mod - D27] (Eterna round: R97, puzzle: Exclusion 6)	22.2 nM	14.7 nM	–	–	–	–
CGAUGAGGAGUGAGGAUAUCGUGUUCGAAAGAACGUGAGAAGGCACAUGAGGAUCACCCAUGUGAUUCUUGUCG [Omei Ex4B A18] (Eterna round: R97, puzzle: Brourd's mod of Exclusion 4)	77.6 nM	22.2 nM	–	–	–	–
CGAUGCUCGAGUCCACAUGAGGAUCACCCAUGUCGAGUUAGCGAGGAUAUCGGAGACACAUAGUAUGAGAAGGCGCGAACCUGA [Ex NG3 #20] (Eterna round: R96, puzzle: Exclusion NG 3)	10 nM	13.6 nM	11.3 nM	–	–	–
CGAUGCUCGUGGCCACAUGAGGAUCACCCAUGUCGAGUUAGCGAGGAUAUCGGUAGCACAUAUCACGAGAAGGCGCGAACCUGA [Ex NG3 #29] (Eterna round: R96, puzzle: Exclusion NG 3)	32.3 nM	12 nM	10.9 nM	–	–	–
CGCCAAAGGAAGGAUAUGCUAGACGAAAGUCUAGCAGAAGGUCCUACAUGAGGAUCACCCAUGUGUCCUAGGCG [Mat - Exclusion 6 - Eli Mod - D10] (Eterna round: R97, puzzle: Exclusion 6)	49.1 nM	46.1 nM	–	–	–	–
CGCCGAGUGUUAGGAUAUCACAAGCAUAAGCGGUGAGAAGGAACAUGAGGAUCACCCAUGUACUGUCCCAUCGGGACAGGUUUC [Ribeon] (Eterna round: R96, puzzle: Exclusion NG 1)	170 nM	70.8 nM	54 nM	–	–	–

Sequence	apparent KD of MS2 coat protein (input ligand: FMN 200 uM)	apparent KD of MS2 coat protein (input ligand: none)	apparent KD of MS2 coat protein [1]	apparent KD of MS2 coat protein [2]	apparent KD of MS2 coat protein [3]	apparent KD of MS2 coat protein [4]
CGCGAGGGAGGAUAUGCACUCAGUGAUCACGCCCAAAUUCGACAUGAGGAUCACCCAUGUAGAAGGCCCGGCUA [EX2 B.15] (Eterna round: R97, puzzle: Exclusion 2)	21.1 nM	19 nM	–	–	–	–
CGCUGGACAGGAUAUGUUCUUGGGCACUUGAGGAUCACCCAAGUCAUCGGGACAUCAGGCACAGAAGGGUUUAUGG [salish99_ex5_r4_026] (Eterna round: R97, puzzle: Exclusion 5)	19.1 nM	21.1 nM	–	–	–	–
CGGAUGUCAGGAUAUCGUGCAUACAACGAAAGUUCUAUGUGCGAGAAGGGACAUGAGGAUCACCCAUGUUUACG [Omei Ex4 A11] (Eterna round: R97, puzzle: Exclusion 4)	206 nM	34.9 nM	–	–	–	–
CGGAUGUGAGGAUAUACAUGAGGAUCACCCAUGUGAGCCAGCUAGCUGACUGGCUCGUGUAGAAGGCACGUCUG [JL-ex3-2.16 Brourd mod] (puzzle: Exclusion 3)	–	–	–	–	14.2 nM	–
CGGCAUGUACAAGGAUAUCAGCACGAUUAGUGCUGAGAAGGUGUAACAUGAGGAUCACCCAUGUAGAUCAUUAACCGAUUAAUU [ENG1/9-A2] (Eterna round: R96, puzzle: Exclusion NG 1)	145 nM	60.7 nM	64.3 nM	–	–	–
CGGCUACGAUGAGGAUAUACGCACAUGAGGAUCACCCAUGUAAAUCACGGGUAAAGAUCGUCAUCGUAGAAGGCAUAAGGGCCC [Ormale] (Eterna round: R96, puzzle: Exclusion NG 2)	33 nM	30.1 nM	23.9 nM	–	–	–
CGUAAAAGGAAGGAUAUGCUAGACGAAAGUCUAGCAGAAGGUCCUACAUGAGGAUCACCCAUGUGUCCUAUACG [Mat - Exclusion 6 - Eli Mod - D12] (Eterna round: R97, puzzle: Exclusion 6)	80.5 nM	49.8 nM	–	–	–	–
CGUAUGUGAGGAUAUGACAAUGGUAUCUUCGGAUACCAUUGUCAGAAGGAACAUGAGGAUCACCCAUGUAGAUC (Eterna round: R96, puzzle: Exclusion 4)	161 nM	54.5 nM	43.1 nM	–	–	–
CGUAUGUGAGGAUAUGACAAUGGUAUCUUCGGAUACCAUUGUCAGAAGGAACAUGAGGAUCACCCAUGUAGAUC (puzzle: Exclusion 4)	–	–	–	–	44.8 nM	–
CGUGCGUAUGUGAGGAUAUGCUGGUCCUUGGCUCGGCAGAAGGCACAUGAGGAUCACCCAUGUGGUGUCGUACG [salish99_Bmod_ex4_062] (puzzle: Brourd's mod of Exclusion 4)	–	–	–	53.4 nM	152 nM	171 nM
CGUGUACGAGGAUAUAGAUUGGAUGACAUGAGGAUCACCCAUGUGAUCAAUCUAUUUGGUUUAGAAGGUGUACAUG [JR_Ex5_Sub050] (Eterna round: R97, puzzle: Exclusion 5)	14.1 nM	14.8 nM	–	–	–	–
CUAAGUUGGUAAGGAUAUCCUACAUUAUUCUGACCCGUGCAAGCUACAUGAGGAUCACCCAUGUGGGAGAAGGUGCGUUAAUGU [Design 5] (Eterna round: R96, puzzle: Exclusion NG 2)	16.3 nM	20.3 nM	13.8 nM	–	–	–
CUAGACCGAGGAUAUAUUAUGUGAAACAUGAGGAUCACCCAUGUAAUAUGAUGGAUGUAAAUAGAAGGCGGUCUAG [Mat - Exclusion 5 - JL mod - D29] (puzzle: Exclusion 5)	–	–	–	31.4 nM	53.4 nM	23 nM
CUAGAUCUUCGGAUCUAGUACAUGAGGAUCACCCAUGUGACGAGUUGAUCCUCAAACAAGCUUUUUGCUCGUCUUAU [Sensor v3 - Turn-off variant 1 - 17] (puzzle: Sensor v3, turn-off variant 1)	–	–	–	19.9 nM	16 nM	22.1 nM
CUAGUAUAUCAGGAUAUGAUAGUGUAUAGUAUAUCAGAAGGGAUGACAUGAGGAUCACCCAUGUUAAGGGAUGA [JR_Ex6_Sub050] (Eterna round: R97, puzzle: Exclusion 6)	52.4 nM	46.1 nM	–	–	–	–
CUAGUAUAUCAGGAUAUGAUAUUGUGUAGUAUAUCAGAAGGGAUGACAUGAGGAUCACCCAUGUUAUGGGAUGA [JR_Ex6_Sub048] (Eterna round: R97, puzzle: Exclusion 6)	273 nM	121 nM	–	–	–	–
CUAGUCCGAGGAUAUAUUAAGUGAUACAUGAGGAUCACCCAUGUAAUUUAAUGGAAAUAAAUAGAAGGCGGACUAG [Mat - Exclusion 5 - JL mod - D52] (puzzle: Exclusion 5)	–	–	–	44.7 nM	46.2 nM	53.3 nM
